Source: publication PMC8182806, “Cryo-EM structures of the full-length human KCC2 and KCC3 cation-chloride cotransporters” (Cell Research, 2020)

Legend:
[1] = biological target: human KCC3 (SLC12A6), K+-Cl- cotransporter 3, full length (human) (UniProt Q9UHW9); experiment: cryo-EM structure; single particle cryo-EM of the purified full-length transporter, no inhibitor; KCC2 at 3.2 Å, KCC3 at 3.3 Å overall
[2] = biological target: the molecule itself; experiment: as above

Molecule	stoichiometry N [1]	binding result [2]
human KCC3 (SLC12A6), K+-Cl- cotransporter 3, full length (from UniProt Q9UHW9-2 1-1099) (natural protein)	2	
human KCC2 (SLC12A5), K+-Cl- cotransporter 2, full length (natural protein, UniProt Q9H2X9 1-1139, looked up, K+-Cl- cotransporter KCC2 (SLC12A5), human, full length; Printed residues: Y407, N-terminal loop A65-N83; It says the KCC2 structure is very similar to that of KCC3; source: expressed and purified) MSRRFTVTSLPPAGPARSPDPESRRHSVADPRHLPGEDVKGDGNPKESSPFINSTDTEKGKEYDGKNMALFEEEMDTSPMVSSLLSGLANYTNLPQGSREHEEAENNEGGKKKPVQAPRMGTFMGVYLPCLQNIFGVILFLRLTWVVGIAGIMESFCMVFICCSCTMLTAISMSAIATNGVVPAGGSYYMISRSLGPEFGGAVGLCFYLGTTFAGAMYILGTIEILLAYLFPAMAIFKAEDASGEAAAMLNNMRVYGTCVLTCMATVVFVGVKYVNKFALVFLGCVILSILAIYAGVIKSAFDPPNFPICLLGNRTLSRHGFDVCAKLAWEGNETVTTRLWGLFCSSRFLNATCDEYFTRNNVTEIQGIPGAASGLIKENLWSSYLTKGVIVERSGMTSVGLADGTPIDMDHPYVFSDMTSYFTLLVGIYFPSVTGIMAGSNRSGDLRDAQKSIPTGTILAIATTSAVYISSVVLFGACIEGVVLRDKFGEAVNGNLVVGTLAWPSPWVIVIGSFFSTCGAGLQSLTGAPRLLQAISRDGIVPFLQVFGHGKANGEPTWALLLTACICEIGILIASLDEVAPILSMFFLMCYMFVNLACAVQTLLRTPNWRPRFRYYHWTLSFLGMSLCLALMFICSWYYALVAMLIAGLIYKYIEYRGAEKEWGDGIRGLSLSAARYALLRLEEGPPHTKNWRPQLLVLVRVDQDQNVVHPQLLSLTSQLKAGKGLTIVGSVLEGTFLENHPQAQRAEESIRRLMEAEKVKGFCQVVISSNLRDGVSHLIQSGGLGGLQHNTVLVGWPRNWRQKEDHQTWRNFIELVRETTAGHLALLVTKNVSMFPGNPERFSEGSIDVWWIVHDGGMLMLLPFLLRHHKVWRKCKMRIFTVAQMDDNSIQMKKDLTTFLYHLRITAEVEVVEMHESDISAYTYEKTLVMEQRSQILKQMHLTKNEREREIQSITDESRGSIRRKNPANTRLRLNVPEETAGDSEEKPEEEVQLIHDQSAPSCPSSSPSPGEEPEGEGETDPEKVHLTWTKDKSVAEKNKGPSPVSSEGIKDFFSMKPEWENLNQSNVRRMHTAVRLNEVIVKKSRDAKLVLLNMPGPPRNRNGDENYMEFLEVLTEHLDRVMLVRGGGREVITIYS		binds
